System: activated human CD4+ T cells
Experiment: Cytokine production (ELISA) by human CD4+ T cells stimulated with anti-CD3/CD28 beads and Delta1 beads, with added soluble protein
Type: cell-based
Details: increasing amounts of soluble protein in culture medium, 3 days
Procedure: M450 Streptavidin Dynabead™ magnetic beads (Dynal, USA) were coated with an anti-human-IgG4 biotinylated monoclonal antibody (BD Bioscience, 555879) by rotating them in the presence of the antibody for 30 minutes at room temperature. Beads were washed three times with PBS (1 ml). They were further incubated with hDelta1-hIgG4 (see Example 1 above) for 2 hours at room temperature and then washed three times with PBS (1 ml).
Human peripheral blood mononuclear cells (PBMC) were purified from blood using Ficoll-Paque separation medium (Pharmacia). Briefly, 28 ml of blood were overlaid on 21 ml of Ficoll-Paque separation medium and centrifuged at 18-20° C. for 40 minutes at 400 g. PBMC were recovered from the interface and washed 3 times before use for CD4+ T cell purification.
The CD4+ T cells were incubated in triplicates in a 96-well-plate (flat bottom) at 10^5 CD4/well/200 μl in RPMI medium containing 10% FCS, glutamine, penicillin, streptomycin and β2-mercaptoethanol.
Cytokine production was induced by stimulating the cells with anti-CD3/CD28 T cell expander beads from Dynal at a 1:1 ratio (bead/cell) in the presence of beads coated with hDelta1-IgG4Fc fusion protein (Example 1 above) at a 5:1 ratio (beads/cell). In some wells, increasing amounts of soluble hdelta1-IgG4Fc fusion protein were also added.
(§1) The supernatants were removed after 3 days of incubation at 37° C./5% CO2/humidified atmosphere and cytokine production was evaluated by ELISA using Pharmingen kits OptEIA Set human IL10 (catalog No. 555157), OptEIA Set human IL-5 (catalog No. 555202) for IL-10 and IL-5 respectively according to the manufacturer's instructions.
Human peripheral blood mononuclear cells (PBMC) were purified from blood using Ficoll-Paque separation medium (Pharmacia). […]
as §1, with “(Catalog” for “(catalog”, “instructions. […]” for “instructions.”

B1: rat Notch1-hIgG1Fc: R&D Systems Catalog No 1057-TK; 12 amino terminal EGF domains of rat Notch-1 fused to the Fc region of human IgG (protein)
chain: ARGLRCSQPSGTCLNGGRCEVANGTEACVCSGAFVGQRCQDPSPCLSTPCKNAGTCYVVDHGGIVDYACSCPLGFSGPLCLTPLANACLANPCRNGGTCDLLTLTEYKCRCPPGWSGKSCQQADPCASNPCANGGQCLPFESSYICGCPPGFHGPTCRQDVNECSQNPGLCRHGGTCHNEIGSYRCACRATHTGPHCELPYVPCSPSPCQNGGTCRPTGDTTHECACLPGFAGQNCEENVDDCPGNNCKNGGACVDGVNTYNCRCPPEWTGQYCTEDVDECQLMPNACQNGGTCHNSHGGYNCVCVNGWTGEDCSENIDDCASAACFQGATCHDRVASFYCECPHGRTGLLCHLNDACISNPCNEGSNCDTNPVNGKAICTCPSGYTGPACSQDVDECALGANPCEHAGKCLNTLGSFECQCLQGYTGPRCEIDVNECISNPCQNDATCLDQIGEFQCICMPGYEGVYCEIEGRMD
modifications: left off: a dimerising Fc or GST
notes: R&D Systems Catalog No 1057-TK; 12 amino terminal EGF domains of rat Notch-1 fused to the Fc region of human IgG
  effect of added soluble protein on the IL-10 enhancement by bead-immobilised Delta1: inhibited

Reference: patent US20050137130A1, “Medical treatment” (priority 2001, published 2005)
